Test results reported in US20090081724A1.

Columns and labels:
[1] = biological target: AD-CaM (Calmodulin, encoded by the CALM2 gene, fused to the activation domain) (human) (UniProt P0DP24); experiment: cell-based or functional assay
[2] = biological target: AD-CaM (Calmodulin, encoded by the CALM2 gene, fused to the activation domain) (human) (UniProt P0DP24); experiment: yeast two-hybrid, CPRG β-gal assay, against DB-Q2C wt

Chain of DB-KCNQ2 wild-type (wt) C-term BAIT (O43526 other isoform, or with tags, fused parts or gaps limits assumed): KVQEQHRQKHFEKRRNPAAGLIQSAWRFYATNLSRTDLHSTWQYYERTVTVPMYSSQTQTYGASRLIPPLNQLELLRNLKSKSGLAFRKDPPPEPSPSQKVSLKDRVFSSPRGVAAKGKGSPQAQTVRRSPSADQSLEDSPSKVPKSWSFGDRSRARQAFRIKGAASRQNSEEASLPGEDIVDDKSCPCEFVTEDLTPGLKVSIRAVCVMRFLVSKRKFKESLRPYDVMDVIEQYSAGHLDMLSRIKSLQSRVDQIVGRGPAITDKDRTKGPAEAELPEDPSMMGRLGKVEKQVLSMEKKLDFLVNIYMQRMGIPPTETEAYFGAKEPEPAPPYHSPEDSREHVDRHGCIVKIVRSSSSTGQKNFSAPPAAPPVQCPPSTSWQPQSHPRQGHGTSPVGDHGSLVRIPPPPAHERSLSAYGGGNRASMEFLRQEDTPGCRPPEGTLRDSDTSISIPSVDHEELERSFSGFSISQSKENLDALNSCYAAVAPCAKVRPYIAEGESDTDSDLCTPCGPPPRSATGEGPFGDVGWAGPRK

Row | Substance | units of β-gal activity (CPRG assay, liquid culture) (units β-gal activity) [1] | fold increase in CaM binding affinity against wt [2]
1 | DB-Q2C L619R mutant (from UniProt O43526 319-872) | 0.26 | 5 fold
2 | DB-KCNQ2 wild-type (wt) C-term BAIT (from UniProt O43526 319-872) | 0.05 | 
